This is an account of results in doi:10.1101/2022.12.25.521893 (bioRxiv, 2022).

The assay has as its target LptDE complex from Shigella flexneri with a hexahistidine tag on LptE (Shigella flexneri, UniProt Q83SQ0;Q0T6Q1). Nature of the assay: native MS.

Ends that are not written are not given here.

Sequence of LptDE complex from Shigella flexneri with a hexahistidine tag on LptE (Q83SQ0 25-784, chain 1 of 2): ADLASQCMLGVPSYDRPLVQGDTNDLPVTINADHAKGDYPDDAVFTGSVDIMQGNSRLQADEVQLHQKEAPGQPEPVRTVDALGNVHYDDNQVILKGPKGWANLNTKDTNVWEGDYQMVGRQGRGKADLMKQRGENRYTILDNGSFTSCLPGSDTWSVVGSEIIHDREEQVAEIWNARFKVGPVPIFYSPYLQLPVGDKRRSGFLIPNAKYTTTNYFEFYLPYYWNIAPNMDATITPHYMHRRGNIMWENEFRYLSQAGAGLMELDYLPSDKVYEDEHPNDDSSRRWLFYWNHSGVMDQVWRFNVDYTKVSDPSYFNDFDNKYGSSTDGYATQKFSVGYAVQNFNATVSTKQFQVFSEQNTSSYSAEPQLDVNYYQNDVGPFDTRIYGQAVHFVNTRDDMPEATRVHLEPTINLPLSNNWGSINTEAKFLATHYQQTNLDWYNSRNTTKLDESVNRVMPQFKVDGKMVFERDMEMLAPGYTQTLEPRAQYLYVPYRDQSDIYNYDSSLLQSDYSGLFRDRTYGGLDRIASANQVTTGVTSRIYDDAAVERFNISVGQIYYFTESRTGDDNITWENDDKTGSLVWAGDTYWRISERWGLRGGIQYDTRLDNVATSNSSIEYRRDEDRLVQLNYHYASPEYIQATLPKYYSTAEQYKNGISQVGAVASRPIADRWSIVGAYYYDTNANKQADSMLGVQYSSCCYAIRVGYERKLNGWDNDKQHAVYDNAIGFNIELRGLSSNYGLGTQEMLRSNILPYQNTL
Sequence of LptDE complex from Shigella flexneri with a hexahistidine tag on LptE (Q0T6Q1 19-193, chain 2 of 2): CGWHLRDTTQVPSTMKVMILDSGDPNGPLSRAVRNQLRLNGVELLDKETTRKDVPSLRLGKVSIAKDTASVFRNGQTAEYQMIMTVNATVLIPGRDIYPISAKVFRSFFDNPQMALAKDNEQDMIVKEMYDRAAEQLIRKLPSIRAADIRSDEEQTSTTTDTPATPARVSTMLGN

B1: endogenous E. coli lipoprotein YedD (natural protein)
chain: CAEVENYNNVVKTPAPDWLAGYWQTKGPQRALVSPEAIGSLIVTKEGDTLDCRQWQRVIAVPGKLTLMSDDLTNVTVKRELYEVERDGNTIEYDGMTMERVDRPTAECAAALDKAPLPTPLP
For orientation: stoichiometry N means a count of units in the complex or per binding partner. Turning to B1, the “stoichiometry N” value was 1.

B2: endogenous Escherichia coli lipoprotein YifL (natural protein)
chain: CGLKGPLYFPPADKNAPPPTKPVETQTQSTVPDKNDRATGDGPSQVNY
modifications: also: three acyl chains (R1, R2, R3) on N-terminal Cys
Turning to B2, the “stoichiometry N” value was 1.
